Data as given in patent publication US20260167699A1 (Chugai, published 2026).

T1: FcγRIIa(R) (human, UniProt P12318 34-217)
T1 construct: extracellular domain; also called FcγRIIa R type; 2aR
T1 sequence: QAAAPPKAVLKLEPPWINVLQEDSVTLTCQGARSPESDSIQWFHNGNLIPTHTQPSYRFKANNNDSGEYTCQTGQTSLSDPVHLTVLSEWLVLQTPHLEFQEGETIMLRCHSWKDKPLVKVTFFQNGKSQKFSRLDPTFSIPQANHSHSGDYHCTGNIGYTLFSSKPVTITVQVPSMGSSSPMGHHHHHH

T2: FcγRIIa(H) (human, UniProt P12318 34-217)
T2 construct: extracellular domain; also called FcγRIIa H type; 2aH
T2 sequence: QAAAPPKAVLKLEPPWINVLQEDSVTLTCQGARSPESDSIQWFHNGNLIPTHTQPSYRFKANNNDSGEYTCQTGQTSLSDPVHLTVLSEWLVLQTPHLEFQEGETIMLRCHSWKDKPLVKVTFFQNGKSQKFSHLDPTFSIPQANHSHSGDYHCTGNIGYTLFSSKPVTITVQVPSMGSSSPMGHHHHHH

T3: FcγRIIb (human, UniProt P31994 43-217)
T3 construct: extracellular domain; also called 2b
T3 sequence: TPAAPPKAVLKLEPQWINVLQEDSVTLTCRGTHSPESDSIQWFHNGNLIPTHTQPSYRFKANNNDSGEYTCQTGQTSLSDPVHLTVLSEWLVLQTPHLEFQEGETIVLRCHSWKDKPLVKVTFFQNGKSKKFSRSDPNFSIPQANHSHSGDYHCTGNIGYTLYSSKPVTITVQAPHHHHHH


Tests used:
Assay in all cases: SPR (Biacore), binding relative to GpH7-A5/GpH7-B3/GpL16-k0 x100;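 also: surface plasmon resonance at 25 °C, antibody captured on a sensor chip and soluble FcγR flowed over it in HBS-EP+ running buffer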
[1] = biological target: T4, FcγRIa (human, UniProt P12314 16-292)
T4 construct: extracellular domain; also called 1a

[2] = biological target: T1, FcγRIIa(R)
[3] = biological target: T2, FcγRIIa(H)
[4] = biological target: T3, FcγRIIb

T4 sequence (P12314 other isoform, or with tags, fused parts or gaps): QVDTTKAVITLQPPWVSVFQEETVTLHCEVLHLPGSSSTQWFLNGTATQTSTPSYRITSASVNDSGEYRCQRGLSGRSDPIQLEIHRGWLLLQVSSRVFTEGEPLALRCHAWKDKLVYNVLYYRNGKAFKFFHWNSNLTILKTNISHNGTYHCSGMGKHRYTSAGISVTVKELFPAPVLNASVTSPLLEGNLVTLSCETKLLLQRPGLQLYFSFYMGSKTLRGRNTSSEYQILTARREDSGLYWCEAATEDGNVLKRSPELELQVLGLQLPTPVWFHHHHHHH

Binder	He/Con 1a [1]	He/Con 2aR [2]	He/Con 2aH [3]	He/Con 2b [4]
GpH7-A5/GpH7-B3 variant L234_06M/GpL16-k0 (antibody, human IgG1, kappa, heterodimerized IgG1, one H chain mutated; also called He Ab) heavy 1: not shown heavy 2: not shown light: DIVMTQSPLSLPVTPGEPASISCQASESLVHSNRNTYLHWYLQKPGQSPQLLIYKVSNRFSGVPDRFSGSGSGTDFTLKISRVEAEDVGVYYCSQNTHVPPTFGQGTKVEIERTVAAPSVFIFPPSDEQLKSGTASVVCLLNNFYPREAKVQWKVDNALQSGNSQESVTEQDSKDSTYSLSSTLTLSKADYEKHKVYACEVTHQGLSSPVTKSFNRGEC	107%	109%	96.4%	89.6%
GpH7-A5/GpH7-B3 variant L235_03V/GpL16-k0 (antibody, human IgG1, kappa, heterodimerized IgG1, one H chain mutated; also called He Ab) heavy 1: not shown heavy 2: not shown light: DIVMTQSPLSLPVTPGEPASISCQASESLVHSNRNTYLHWYLQKPGQSPQLLIYKVSNRFSGVPDRFSGSGSGTDFTLKISRVEAEDVGVYYCSQNTHVPPTFGQGTKVEIERTVAAPSVFIFPPSDEQLKSGTASVVCLLNNFYPREAKVQWKVDNALQSGNSQESVTEQDSKDSTYSLSSTLTLSKADYEKHKVYACEVTHQGLSSPVTKSFNRGEC	97.8%	83.4%	94.9%	75.8%
GpH7-A5/GpH7-B3 variant L234_20W/GpL16-k0 (antibody, human IgG1, kappa, heterodimerized IgG1, one H chain mutated; also called He Ab) heavy 1: not shown heavy 2: not shown light: DIVMTQSPLSLPVTPGEPASISCQASESLVHSNRNTYLHWYLQKPGQSPQLLIYKVSNRFSGVPDRFSGSGSGTDFTLKISRVEAEDVGVYYCSQNTHVPPTFGQGTKVEIERTVAAPSVFIFPPSDEQLKSGTASVVCLLNNFYPREAKVQWKVDNALQSGNSQESVTEQDSKDSTYSLSSTLTLSKADYEKHKVYACEVTHQGLSSPVTKSFNRGEC	102%	125%	126%	131%
GpH7-A5/GpH7-B3 variant L235_06M/GpL16-k0 (antibody, human IgG1, kappa, heterodimerized IgG1, one H chain mutated; also called He Ab) heavy 1: not shown heavy 2: not shown light: DIVMTQSPLSLPVTPGEPASISCQASESLVHSNRNTYLHWYLQKPGQSPQLLIYKVSNRFSGVPDRFSGSGSGTDFTLKISRVEAEDVGVYYCSQNTHVPPTFGQGTKVEIERTVAAPSVFIFPPSDEQLKSGTASVVCLLNNFYPREAKVQWKVDNALQSGNSQESVTEQDSKDSTYSLSSTLTLSKADYEKHKVYACEVTHQGLSSPVTKSFNRGEC	101%	106%	96.3%	92.4%
GpH7-A5/GpH7-B3 variant L234_19Q/GpL16-k0 (antibody, human IgG1, kappa, heterodimerized IgG1, one H chain mutated; also called He Ab) heavy 1: not shown heavy 2: not shown light: DIVMTQSPLSLPVTPGEPASISCQASESLVHSNRNTYLHWYLQKPGQSPQLLIYKVSNRFSGVPDRFSGSGSGTDFTLKISRVEAEDVGVYYCSQNTHVPPTFGQGTKVEIERTVAAPSVFIFPPSDEQLKSGTASVVCLLNNFYPREAKVQWKVDNALQSGNSQESVTEQDSKDSTYSLSSTLTLSKADYEKHKVYACEVTHQGLSSPVTKSFNRGEC	98.8%	87.2%	88.1%	68.9%
GpH7-A5/GpH7-B3 variant L234_10E/GpL16-k0 (antibody, human IgG1, kappa, heterodimerized IgG1, one H chain mutated; also called He Ab) heavy 1: not shown heavy 2: not shown light: DIVMTQSPLSLPVTPGEPASISCQASESLVHSNRNTYLHWYLQKPGQSPQLLIYKVSNRFSGVPDRFSGSGSGTDFTLKISRVEAEDVGVYYCSQNTHVPPTFGQGTKVEIERTVAAPSVFIFPPSDEQLKSGTASVVCLLNNFYPREAKVQWKVDNALQSGNSQESVTEQDSKDSTYSLSSTLTLSKADYEKHKVYACEVTHQGLSSPVTKSFNRGEC	104%	130%	98.2%	134%
GpH7-A5/GpH7-B3 variant L234_07I/GpL16-k0 (antibody, human IgG1, kappa, heterodimerized IgG1, one H chain mutated; also called He Ab) heavy 1: not shown heavy 2: not shown light: DIVMTQSPLSLPVTPGEPASISCQASESLVHSNRNTYLHWYLQKPGQSPQLLIYKVSNRFSGVPDRFSGSGSGTDFTLKISRVEAEDVGVYYCSQNTHVPPTFGQGTKVEIERTVAAPSVFIFPPSDEQLKSGTASVVCLLNNFYPREAKVQWKVDNALQSGNSQESVTEQDSKDSTYSLSSTLTLSKADYEKHKVYACEVTHQGLSSPVTKSFNRGEC	106%	110%	101%	92.3%
GpH7-A5/GpH7-B3 variant L235_02A/GpL16-k0 (antibody, human IgG1, kappa, heterodimerized IgG1, one H chain mutated; also called He Ab) heavy 1: not shown heavy 2: not shown light: DIVMTQSPLSLPVTPGEPASISCQASESLVHSNRNTYLHWYLQKPGQSPQLLIYKVSNRFSGVPDRFSGSGSGTDFTLKISRVEAEDVGVYYCSQNTHVPPTFGQGTKVEIERTVAAPSVFIFPPSDEQLKSGTASVVCLLNNFYPREAKVQWKVDNALQSGNSQESVTEQDSKDSTYSLSSTLTLSKADYEKHKVYACEVTHQGLSSPVTKSFNRGEC	95.2%	86.6%	77.6%	72%
